According to patent publication US20010000783A1, “Treatment of interstitial cystitis” (priority 1998, published 2001):

Tests used:
Assay type in all cases: cell-based
[1] = system: Normal human bladder epithelial cells; test: Inhibition of APF activity by recombinant growth factors, low molecular weight urine fractions, 3H-thymidine incorporation
Experimental: (§1) Primary normal adult human bladder epithelial (HBE) cells were cultured by the method described above in Part II. On the third day of incubation, cell medium was replaced by serum free MEM containing the less than 3 kDa fraction (i.e, containing the APF) of urine specimens from IC patients or controls (i.e., that part containing the anti-proliferative factor or APF described in related application Ser. No. 08/944,202), or HPLC-purified APF or its mock control along with varying concentrations of recombinant HB-EGF (0-100 ng/ml), EGF (0-100 ng/ml), or IGF-1 (0-300 pg/ml) [all from R & D Systems, Minneapolis, Minn.] diluted in phosphate buffered saline (1:1:1). Urine was prepared by the method described above in Part II and HPLC purified APF was prepared as described above. Following an additional 48 hours of incubation at 37 degrees C. in a 5% CO2 atmosphere, cell proliferation was assessed by ^3H-thymidine incorporation according to the published methods^38.
Normal human bladder epithelial cells were exposed simultaneously to recombinant human growth factors (HB-EGF, EGF, or IGF1) and low molecular weight fractions from IC patients or control urine specimens. Cell proliferation was determined 48 hours later by 3H-thymidine incorporation (FIGS. 6A-6C). Bar values indicate the mean of 5-8 determinations. Vertical lines indicate the standard error of the mean.

[2] = system: primary human bladder epithelial cells grown from normal bladder tissue; test: Inhibition of HPLC-purified APF activity by rhHB-EGF, 3H-thymidine incorporation, cells from normal bladder tissue; conditions: 10 pg/10^7 cells HPLC-purified APF, 48 hours; cells from controls; FIG. 10A
Experimental: as §1
(§2) Cell proliferation was determined 48 hours later by 3H-thymidine incorporation. Bar values indicate the mean of triplicate determinations. Vertical lines indicate the standard of error of the mean.

[3] = system: primary human bladder epithelial cells grown from IC patient biopsy specimens; test: Inhibition of HPLC-purified APF activity by rhHB-EGF, 3H-thymidine incorporation, cells from IC patient biopsies; conditions: 10 pg/10^7 cells HPLC-purified APF, 48 hours; cells from IC patients; FIG. 10B
Experimental: as §1, §2

B1: heparin-binding epidermal growth factor-like growth factor (protein, UniProt Q99075 63-148, looked up)
Heparin-binding EGF-like …: DLQEADLDLLRVTLSSKPQALATPNKEEHGKRKKKGKGLGKKRDPCLRKYKDFCIHGECKYVKELRAPSCICHPGYHGERCHGLSL
With B1 the “proliferation of cells exposed to urine from IC patients” value ([1]; high concentrations of rhHB-EGF, compared with cells exposed to control urines, FIG. 6A) was “stimulated, more than that of cells exposed to control urines”, the “inhibition of APF antiproliferative activity” value ([1]; simultaneous exposure to recombinant growth factor and <3 kDa urine fraction, 48 hours, HB-EGF 0-100 ng/ml (effect evident at 10 ng/ml), EGF 0-100 ng/ml, IGF-1 0-300 pg/ml, FIGS. 6A-6C) was “resulted in inhibition of APF antiproliferative activity” and the “inhibition of APF's antiproliferative effects” value [2] was “can inhibit APF's antiproliferative effects”. For the same molecule, the “inhibition of APF's antiproliferative effects” value [3] was “can inhibit APF's antiproliferative effects”.
